Results on four molecules are retold here after patent publication US7867732B2, “Isolated polypeptide binding to a sugar chain, polynucleotide encoding the polypeptide and use of the polypeptide and polynucleotide” (National University of Corporation Hiroshima University, priority 2005, dated 2011).

Broadly, the Kd is a measure of binding affinity in units of concentration.

Data set [1] deals with BML-17. The data set is described as follows: Hemagglutination-inhibition test with BML-17 and trypsin-treated rabbit erythrocytes. In kind it is cell-based, Bryopsis maxima. The settings on record: gel filtration active fractions instead of purified BML-17. On the technique in general: SEC sorts molecules by how far they enter the pores of the column.
For data set [2], the system named is BML-17. Described as above. In kind it is cell-based, Bryopsis maxima. The procedure: (§1) Hemagglutinating activity was measured using a micro titer method. Twenty-five μl of serially two-fold dilutions of each purified fraction solution adjusted with saline was placed on a micro titer plate. Each diluted solution was supplemented with 25 μl of a 2% suspension of trypsin-treated rabbit erythrocytes and was gently stirred. The mixture was allowed to stand at room temperature for 1.5 hours and agglutination was observed. Agglutination was evaluated with naked eye. Agglutination of 50% or greater percentage of red blood cells was evaluated as positive. Agglutinating activity was given by agglutination titer, i.e., the protein concentration of maximum diluent showing agglutinating activity.
In this Example, trypsin-treated rabbit red blood cells (TRBC) were used as red blood cells. TRBC was prepared as follows. First, 2 ml of blood was collected from the ear of a rabbit kept in laboratory. The blood sample was washed 3 times with about 50 ml of saline, and was supplemented with 50 ml of saline to obtain a 2% rabbit blood cell suspension. The solution was supplemented with 1/10 volume of 0.5% trypsin in saline, and was allowed to stand at 37° C. for 1.5 hours. The trypsin-treated red blood cells were then washed 3 times with saline, and were supplemented with 45 ml of saline to obtain a 2% suspension of trypsin-treated rabbit erythrocytes (or blood cells) (TRBC).
Hemagglutination-inhibition test was performed according to the following procedure. First, each 25 μl of serially two-fold dilutions of sugar solution in saline was placed on a micro titer plate. The concentration of the original solutions of sugars examined was 100 mM for monosaccharides and oligosaccharides, and 2 mg/ml for glycoproteins. Each solution was mixed with 25 μl of BML-17 solution that had been adjusted to an agglutination titer of 4, and allowed to stand for 1.5 hours at room temperature after gentle stirring. Then, 25 μl of TRBC was added, and the mixture was allowed to stand for 2 hours at room temperature to observe hemagglutination inhibitory capability. The presence or absence of hemagglutination inhibitory capability was determined by naked eye. The test was positive when no hemagglutination occurred in about 100% of the red blood cells.
The hemagglutination inhibition test used D-glucose, D-galactose, D-mannose, N-acetyl-D-glucosamine, N-acetyl-D-galactosamine, D-xylose, L-fucose, fructose, lactose, and raffinose as monosaccharides and oligosaccharides. As glycoproteins, mucin (bovine submaxillary gland) and asialomucin, fetuin (type III, calf serum) and asialofetuin, transferrin (human) and asialotransferrin, α1-acid glycoprotein (human) and alialo-α1-acid glycoprotein, and yeast mannan were used.

The target of a further data set is T1, bovine tyroglogulin (Bos taurus, UniProt P01267).
T1 construct: purchased SIGMA
T1 sequence (P01267 20-2769): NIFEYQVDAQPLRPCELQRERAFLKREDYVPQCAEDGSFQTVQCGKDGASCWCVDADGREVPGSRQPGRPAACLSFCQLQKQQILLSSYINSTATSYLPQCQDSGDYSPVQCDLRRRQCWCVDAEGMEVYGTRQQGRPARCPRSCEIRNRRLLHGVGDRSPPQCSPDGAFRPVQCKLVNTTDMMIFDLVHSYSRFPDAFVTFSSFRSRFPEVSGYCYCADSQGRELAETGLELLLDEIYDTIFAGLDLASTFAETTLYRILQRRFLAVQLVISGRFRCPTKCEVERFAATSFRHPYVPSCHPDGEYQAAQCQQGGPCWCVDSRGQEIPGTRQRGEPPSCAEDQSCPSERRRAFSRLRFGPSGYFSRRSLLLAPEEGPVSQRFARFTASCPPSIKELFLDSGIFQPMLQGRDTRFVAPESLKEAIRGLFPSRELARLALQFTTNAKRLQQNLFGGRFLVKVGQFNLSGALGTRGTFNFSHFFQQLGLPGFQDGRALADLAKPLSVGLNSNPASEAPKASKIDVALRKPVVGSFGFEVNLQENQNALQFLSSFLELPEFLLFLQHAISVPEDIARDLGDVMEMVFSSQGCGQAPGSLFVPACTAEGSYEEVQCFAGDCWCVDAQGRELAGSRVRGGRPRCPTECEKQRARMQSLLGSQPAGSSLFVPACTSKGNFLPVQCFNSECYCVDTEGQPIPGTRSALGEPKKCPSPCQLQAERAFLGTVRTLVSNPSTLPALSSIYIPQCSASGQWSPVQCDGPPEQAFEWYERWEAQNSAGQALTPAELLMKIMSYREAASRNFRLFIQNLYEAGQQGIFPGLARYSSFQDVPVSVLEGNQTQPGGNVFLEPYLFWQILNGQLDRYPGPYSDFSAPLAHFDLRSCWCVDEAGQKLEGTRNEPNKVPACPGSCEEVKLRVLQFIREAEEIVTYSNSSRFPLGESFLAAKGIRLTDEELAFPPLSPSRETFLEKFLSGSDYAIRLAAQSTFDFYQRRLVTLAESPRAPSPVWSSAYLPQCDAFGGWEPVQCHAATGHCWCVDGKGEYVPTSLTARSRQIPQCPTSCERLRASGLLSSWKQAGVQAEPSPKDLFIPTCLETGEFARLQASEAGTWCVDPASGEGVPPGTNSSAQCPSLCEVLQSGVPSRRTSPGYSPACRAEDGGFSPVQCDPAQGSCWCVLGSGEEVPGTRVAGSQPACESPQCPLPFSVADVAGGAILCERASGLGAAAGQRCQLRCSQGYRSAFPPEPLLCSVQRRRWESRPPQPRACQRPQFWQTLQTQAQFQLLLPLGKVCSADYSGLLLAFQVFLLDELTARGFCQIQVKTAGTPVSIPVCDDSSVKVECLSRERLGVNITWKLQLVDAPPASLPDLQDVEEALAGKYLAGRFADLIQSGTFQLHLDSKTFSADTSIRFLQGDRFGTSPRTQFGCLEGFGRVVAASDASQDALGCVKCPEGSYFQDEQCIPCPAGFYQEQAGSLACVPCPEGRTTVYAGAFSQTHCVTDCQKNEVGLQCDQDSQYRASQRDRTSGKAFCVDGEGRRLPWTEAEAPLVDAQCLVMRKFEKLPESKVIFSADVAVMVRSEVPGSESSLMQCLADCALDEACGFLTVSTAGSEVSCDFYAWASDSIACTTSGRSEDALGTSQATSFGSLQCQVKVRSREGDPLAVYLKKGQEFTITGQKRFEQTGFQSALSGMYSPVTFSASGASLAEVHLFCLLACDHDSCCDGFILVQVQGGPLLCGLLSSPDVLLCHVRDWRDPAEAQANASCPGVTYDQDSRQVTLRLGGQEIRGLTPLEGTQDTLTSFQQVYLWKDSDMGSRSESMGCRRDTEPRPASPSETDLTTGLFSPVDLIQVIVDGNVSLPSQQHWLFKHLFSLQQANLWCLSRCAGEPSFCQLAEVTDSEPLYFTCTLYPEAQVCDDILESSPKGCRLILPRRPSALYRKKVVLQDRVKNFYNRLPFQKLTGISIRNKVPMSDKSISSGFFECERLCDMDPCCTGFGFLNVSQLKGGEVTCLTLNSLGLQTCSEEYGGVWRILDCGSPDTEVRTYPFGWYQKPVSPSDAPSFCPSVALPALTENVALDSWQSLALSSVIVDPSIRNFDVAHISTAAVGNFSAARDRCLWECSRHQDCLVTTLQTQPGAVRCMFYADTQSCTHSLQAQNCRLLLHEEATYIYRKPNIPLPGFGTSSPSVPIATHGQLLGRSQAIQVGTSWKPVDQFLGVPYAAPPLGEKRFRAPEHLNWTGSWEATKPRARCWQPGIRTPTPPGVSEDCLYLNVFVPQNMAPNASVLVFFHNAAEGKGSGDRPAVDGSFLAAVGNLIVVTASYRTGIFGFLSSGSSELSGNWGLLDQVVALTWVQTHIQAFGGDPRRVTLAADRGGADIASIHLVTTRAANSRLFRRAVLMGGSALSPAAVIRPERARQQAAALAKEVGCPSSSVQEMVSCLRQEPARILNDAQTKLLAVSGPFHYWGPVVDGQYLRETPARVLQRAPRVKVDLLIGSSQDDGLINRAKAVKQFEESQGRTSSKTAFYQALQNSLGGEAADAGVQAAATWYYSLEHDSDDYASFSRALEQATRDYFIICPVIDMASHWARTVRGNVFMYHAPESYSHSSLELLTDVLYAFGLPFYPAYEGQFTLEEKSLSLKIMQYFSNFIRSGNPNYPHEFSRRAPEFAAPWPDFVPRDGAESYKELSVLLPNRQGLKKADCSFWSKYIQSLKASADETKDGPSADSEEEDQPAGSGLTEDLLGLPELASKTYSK
Put plainly: Elutability of lectins bound to a bovine tyroglobulin-immobilized chip (SPR). In kind it is binding, cattle. To be noted: 0.5 M D-mannose. An excerpt:
As in the case of chicken egg yolk antibody, a chip having immobilized thereon bovine tyroglogulin including the high-mannose-type sugar chain and the complex-type sugar chain was used to assess elutability of lectins that had bound to the chip. Note that, tyroglogulin was immobilized in a maximum amount (12,095 RU) on CM5 sensor chip, so as to make it easier to confirm specific binding and elution. Each solution of analyte (lectin) contained in HBS-EP (equilibriated) buffer (BIACORE) at a concentration of 100 μg/ml was flown at a flow rate of 5 μl/min until the amount of bonding reached equilibrium. After washing with HBS-EP buffer and the dissociation has reached equilibrium, 50 μl of 0.5 M D-mannose in the same buffer was injected. Based on the sensorgram, the amount of binding (RU) at the time when 50 μl (5 μg) of analyte (lectin) solution was injected was measured. Then, the amount of residual bonding (RU) of analyte (lectin) after buffer washing and elution with 50 μl of 0.5 M D-mannose was measured. The amount of residual bonding was given by percentage with respect to the maximum amount of bonding.
FIG. 3 represents the amount of residual bonding (%) of analyte (lectin) after the bonding, washing, and elution with 0.5 M D-mannose. FIG. 3 represents relative amounts of lectin that remain bonded to the chip after the dissociation with HBS-EP buffer, and relative amounts of lectin that remain after the elution with 0.5M D-mannose, when the amount of lectin binding to the bovine tyroglobulin immobilized chip exposed to the respective lectins is taken at 100%.

Data set [3] deals with chicken egg yolk antibody (chicken IgY antibody). Put plainly: Search for lectins that bind to chicken egg yolk antibody by SPR (Biacore 2000). In kind it is binding. To be noted: chicken IgY immobilized as ligand. An excerpt:
Assessment was made as to affinity of the different types of lectins and chicken egg yolk antibody (chicken IgY antibody). Briefly, using Biacore 2000 (BIACORE) that employs the principle of surface plasmon resonance method (hereinafter, “SPR method”), chicken egg yolk antibodies (chicken IgY antibodies) were immobilized as ligands on a sensor chip, and measurements were made according to manuals using each type of lectin solution as an analyte. The SPR technique allows for measurement of specific interactions between biomolecules both quickly and quantitatively, without labeling the biomolecules. According to this technique, the ligands are immobilized on a surface of the sensor chip, which is then supplemented with a solution of substance (analyte) that acts on the ligand. Slight changes in mass caused by the binding and dissociation of the molecules are then detected as changes in SPR signals. The mass change is represented by resonance unit (RU). One thousand RU is equivalent to a change in reflection angle of 0.1° caused by resonance, and it means that the analyte has bound to the ligand at 1 ng/mm^2. The surface of the sensor chip is coated with dextran, and the ligands are immobilized primarily via carboxyl groups that have been introduced into the dextran.
Note that, as permitted, the lectins tested as analytes were selected to have different sugar binding specificity. The chicken egg yolk antibody (chicken IgY antibodies) tested as ligands were obtained by purification from egg yolk, using Eggcellent Chicken IgY Purification Kit (Pierce Chem. Co. USA).
A general note: SPR reads the build-up and loss of mass on a sensor chip optically.

The target in a further data set is T2, asialotransferrin (Homo sapiens, UniProt P02787).
T2 construct: purchased SIGMA
T2 sequence (P02787 20-698): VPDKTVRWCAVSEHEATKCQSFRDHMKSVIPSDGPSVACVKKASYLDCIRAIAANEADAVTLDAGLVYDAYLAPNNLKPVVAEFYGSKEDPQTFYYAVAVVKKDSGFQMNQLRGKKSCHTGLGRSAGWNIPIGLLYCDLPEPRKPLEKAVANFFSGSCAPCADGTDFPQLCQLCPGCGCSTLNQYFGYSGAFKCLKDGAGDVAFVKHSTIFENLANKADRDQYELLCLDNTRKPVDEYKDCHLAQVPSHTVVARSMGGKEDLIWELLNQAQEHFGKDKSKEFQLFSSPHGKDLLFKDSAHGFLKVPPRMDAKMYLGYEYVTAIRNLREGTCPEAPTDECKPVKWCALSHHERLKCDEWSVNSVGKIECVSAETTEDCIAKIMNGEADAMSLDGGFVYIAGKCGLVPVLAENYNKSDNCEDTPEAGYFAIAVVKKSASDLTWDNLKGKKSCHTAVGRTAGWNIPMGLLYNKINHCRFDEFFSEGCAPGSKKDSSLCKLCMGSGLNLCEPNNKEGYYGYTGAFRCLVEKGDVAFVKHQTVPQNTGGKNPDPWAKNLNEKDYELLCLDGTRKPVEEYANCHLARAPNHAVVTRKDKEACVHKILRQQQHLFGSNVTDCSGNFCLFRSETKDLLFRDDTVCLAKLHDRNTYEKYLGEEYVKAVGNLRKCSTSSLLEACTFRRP
The data set is described as follows: SPR kinetics analysis of affinity between lectins and immobilized asialotransferrin. In kind it is binding. How it is done:
(§2) Immobilization was performed according to manuals. Specifically, Taka-amylase A was immobilized using a surface thiol coupling method, and asialofetuin, bovine tyroglobulin, antibody, and BSA were immobilized using an amine coupling method. Each sample was immobilized in an amount within a range of 1000 RU to 1500 RU as adjusted by a manual injection method. Purity of the glycoprotein was confirmed by SDS-PAGE or MALDI-TOF-MS.
Affinity between each glycoprotein and each lectin was analyzed by SPR technique. Prior to analysis, preliminary analyses were made to assess analysis methods. […] Approximate KD values were calculated from a resulting sensorgram, and five or more steps of two-fold series dilutions of analyte (lectin) were prepared at target concentrations of 0.1 to 10 KD [M]. An analysis program was created using “Customized Application” according to the manual, and a subtraction function was used in which subtraction was made from flow cells that had glycoproteins immobilized thereon, from among four flow cells in the sensor chip. […] Under this analysis program, each analyte (lectin) solution was flown on the sensor chip at a flow rate of 30 μl/min for 3 minutes, and buffer was flown for 3 minutes to measure the amount of lectin that had bonded/dissociated. […]

The test system of data set [4] is chicken egg yolk antibody (chicken IgY antibody). Put plainly: SPR kinetics analysis of affinity between lectins and immobilized chicken egg yolk antibody. In kind it is binding. The settings on record: lectin as analyte; for Kd: read-out: Dissociation Constant KD. The procedure: as §2
Affinity between each glycoprotein and each lectin was analyzed by SPR technique. Prior to analysis, preliminary analyses were made to assess analysis methods. […] Approximate KD values were calculated from a resulting sensorgram, and five or more steps of two-fold series dilutions of analyte (lectin) were prepared at target concentrations of 0.1 to 10 KD [M]. An analysis program was created using “Customized Application” according to the manual, and a subtraction function was used in which subtraction was made from flow cells that had glycoproteins immobilized thereon, from among four flow cells in the sensor chip. […] Under this analysis program, each analyte (lectin) solution was flown on the sensor chip at a flow rate of 30 μl/min for 3 minutes, and buffer was flown for 3 minutes to measure the amount of lectin that had bonded/dissociated. Note that, an increase in RU during the time period from 10 seconds before addition of the analyte and to 10 seconds before the end of addition of analyte was given as the amount of bonding. A decrease in RU in the time period from 10 seconds after the addition of buffer to 10 seconds before the end of addition of buffer was given as the amount of dissociation.
Next, the sensor chip was washed with 0.5 M D-mannose, 10 mM glycine-HCl (pH 4.0), 50 mM HCl, and 10 mM NaOH for reproduction. Concerning the resulting sensorgram, the bonding phase and dissociation phase were fitted together with the curve to determine a bonding rate constant Ka, a dissociation rate constant kd, an affinity constant KA, and a dissociation constant KD.
Table 1 represents affinity constants of chicken egg yolk antibody and the various lectins. Table 1 represents bonding rate constant Ka (M^−1s^−1), dissociation rate constant Kd (s^−1), affinity constant KA (M^−1), and dissociation constant KD (M). The greater the affinity constant, the greater the affinity (stronger binding).

The test system of data set [5] is trypsin-treated rabbit red blood cell (TRBC). The data set is described as follows: Temperature stability and pH stability of BML-17 by agglutinating activity. In kind it is physicochemical. The settings on record: 30-minute heat treatment. The procedure:
as §1
In this Example, trypsin-treated rabbit red blood cells (TRBC) were used as red blood cells. TRBC was prepared as follows. First, 2 ml of blood was collected from the ear of a rabbit kept in laboratory. The blood sample was washed 3 times with about 50 ml of saline, and was supplemented with 50 ml of saline to obtain a 2% rabbit blood cell suspension. The solution was supplemented with 1/10 volume of 0.5% trypsin in saline, and was allowed to stand at 37° C. for 1.5 hours. […]
Temperature stability and pH stability of BML-17 were evaluated, using agglutinating activity for trypsin-treated rabbit red blood cell (TRBC) as a measure.

In brackets after ≈: the same amount, converted by molar mass.

`O=C[C@@H](O)[C@@H](O)[C@H](O)[C@H](O)CO` [D-Mannose]: the “Inhibition of agglutinating activity of the active fractions obtained by gel filtration” value in the data set on BML-17 [1] is given as “not inhibited at all”. The “Inhibition of agglutinating activity of BML-17 (in words)” value in the data set with BML-17 [2] (TRBC) is listed as “inhibited”. The molecule further registered a Minimum inhibitory concentration with BML-17 [2] (monosaccharides and oligosaccharides, inhibition of BML-17 (agglutination titer 4) agglutination of TRBC) of 12.5 mM (≈ 2250 µg/mL).

Take “Con A: Canavallia ensiformis-derived lectin”: the “Elution of bound lectin with D-mannose” value in the data set with bovine tyroglogulin is “partially eluted with D-mannose”. Moreover, the “Binding to chicken egg yolk antibody (in words)” value (“Binding … (in words)” below) in data set [3] is reported as “binding to chicken egg yolk antibody (chicken IgY antibodies) occurs”. For the same molecule, the “Affinity Constant KA” value with asialotransferrin was 10^6 M^−1. Besides, in data set [4], the “Affinity Constant KA” value came to 1.87e+07 M⁻¹, the “Binding Rate Constant ka” value stood at 467 M⁻¹ s⁻¹, the “Dissociation Rate Constant kd” value was determined as 2.49e-05 s⁻¹ and the Kd was 53.4 nM.

B1: ESA-2: Eucheuma serra-derived lectin (protein)
chain: GRYTVQNQWGGSSAPWNDAGLWILGSRGNQNVMAVDVNSSDGGANLNGTMTYSGEGPIGFKGARRGESNVYDVENQWGGSSAPWHAGGQFVIGSRSGQGVLAVNITSSDGGKTLTGTMTYEREGPIGFKGTQSGGDTYNVENQWGGSSAPWNKAGIWALGDRSGQAMIAMDVSSSDGGKTLEGTMQYKGEGPIGFRGKLSGANNYSVENQWGGSSAPWNAAGDWLIGDRHNQNITAVKVSSDNDGKNLDGTCTYEREGPIGFKGVATS
B1: in the data set with bovine tyroglogulin, the “Elution of bound lectin with D-mannose” value is “not eluted with D-mannose or any other eluents”. The “Binding … (in words)” value in data set [3] is “binding to chicken egg yolk antibody (chicken IgY antibodies) occurs”. Moreover, in data set [4], the “Affinity Constant KA” value was determined as 7.73e+07 M⁻¹, the “Binding Rate Constant ka” value was determined as 352000 M⁻¹ s⁻¹ and the “Dissociation Rate Constant kd” value is 0.00455 s⁻¹.

B2: BML-17: polypeptide (lectin) isolated from seaweed Bryopsis maxima; amino acid sequence of SEQ ID NO: 2 (protein, listed as Bryopsis maxima)
chain: VIYQDPVTSDMFAKIPMPGHRGPWYVCHSSGDWSRNEPVFGRCALDAKGMVEAYFPYGGKDIKWPSRWSAVLTTGVYWGKYNDWKQADCNGGQQVVDGGRGAVTVRMDGLSECKGWTTGKSSHNEVWFGCNGKEVGSWLSDTPASDVFPLCQEYGAAVKLVHMGRAFN
With B2, in the data set with bovine tyroglogulin, the “Elution of bound lectin with D-mannose” value is “specifically and quantitatively eluted with D-mannose”. Besides, the “Temperature at which agglutinating activity attenuated” value in data set [5] was ≥ 60 °C. Further, in data set [3], the “Binding … (in words)” value is recorded as “binding to chicken egg yolk antibody (chicken IgY antibodies) occurs”. In data set [4], the “Affinity Constant KA” value worked out at 8.36e+07 M⁻¹, the “Binding Rate Constant ka” value was determined as 490000 M⁻¹ s⁻¹, the “Dissociation Rate Constant kd” value was found to be 0.00586 s⁻¹ and the Kd came out at 12 nM.
